Laboratory results taken from publication PMC10953408.
pKd: −log10 of the molar value.

Columns and labels:
[1] = target: NanoBiT complemented heteromer of HiBit‐IL23R and LgBit‐IL12Rβ1 (UniProt Q5VWK5)
LgBit‐IL12Rβ1 [2] = target: LgBit‐IL12Rβ1 (UniProt P42701); experiment: split reporter (BiFC, NanoBiT); complementary NanoBiT-tagged receptor constructs co-expressed in HEK293T cells; luminescence of living cells in HBSS with 1 mg/ml BSA after furimazine, plate reader; with or without 10 nM IL-23, with or without co-expressed untagged IL12Rβ1
LgBit‐IL23R = LgBit‐IL23R (UniProt Q5VWK5); experiment: as above
LgBit‐IL12Rβ1 [3] = target: LgBit‐IL12Rβ1 (UniProt P42701); experiment: split reporter (BiFC, NanoBiT); HiBit-IL23R (80 ng per well) co-transfected with LgBit-IL12Rβ1 or LgBit-VEGFR-2 (20 ng per well) in HEK293T cells; luminescence given as percent of that of the LgBit receptor alone with 50 nM purified HiBit; HBSS/0.1% BSA, 37°C
LgBit‐VEGFR‐2 = LgBit‐VEGFR‐2 (UniProt P35968); experiment: as above
[4] = target: NanoBiT complemented heteromer of HiBit‐IL23R and LgBit‐IL12Rβ1 (UniProt Q5VWK5); experiment: FRET or BRET; NanoBiT BRET saturation: concentration titration of IL23-TMR for 1 h on living HEK293T cells expressing complemented NanoBiT receptors, with or without unlabelled IL-23; HBSS with 1 mg/ml BSA; one site total and nonspecific fit
[5] = target: Trimeric or multimeric species of HiBit‐IL23R, LgBit‐IL23R and IL12Rβ1 (UniProt Q5VWK5); experiment: as above

Recombinant IL‐23 (from UniProt Q9NPF7 20-189; P29460 23-328) (ligand)
EC50 of STAT3 phosphorylation (phospho-STAT3 AlphaLISA), increasing concentrations of IL-23 on cells expressing HiBit-IL23R and LgBit-IL12Rβ1 [1]: 0.193 nM

HiBit‐IL23R (from UniProt Q5VWK5 24-629) (receptor)
fold luminescence over the mean of the receptor constructs expressed in isolation (LgBit‐IL12Rβ1 [2]): 73.3 fold
fold lower luminescence than the equivalent heteromeric condition (LgBit‐IL23R): 2.12 fold
fold stronger luminescence than the SmBit homomer (LgBit‐IL23R): 6.36 fold
luminescence as percent of that of LgBit-IL12Rβ1 with 50 nM purified HiBit (LgBit‐IL12Rβ1 [3]): 73%
luminescence as percent of that of LgBit-VEGFR-2 with 50 nM purified HiBit (LgBit‐VEGFR‐2): 11.6%

SmBit‐IL23R (from UniProt Q5VWK5 24-629) (receptor)
fold lower luminescence than HiBit-IL23R with LgBit-IL12Rβ1 (LgBit‐IL12Rβ1 [2]): 6.19 fold
fold luminescence over the mean of the receptor constructs expressed in isolation (LgBit‐IL12Rβ1 [2]): 10.3 fold
fold lower luminescence than the equivalent heteromeric condition (LgBit‐IL23R): 2.18 fold

Tetramethylrhodamine (TMR) tagged IL‐23 (from UniProt Q9NPF7 20-189; P29460 23-328) (ligand)
pKd [4]: 9.63
pKd [5]: 10.44
